No end group written: not given here. fluorescein = fluorescein attached to the C-terminus
Key:
[1] = target: T1, GST-UBR1 fusion protein (GST-Ubr-box of Ubr1) (human); experiment: fluorescence polarization, GST-Ubr-box titrated into 9 nM tracer
T1 construct: GST fusion used as such in the FP assay

[2] = target: T2, GST-UBR2 fusion protein (GST-Ubr-box of Ubr2) (human); experiment: as above
T2 construct: GST fusion used as such in the FP assay

GST-Ubr-box of Ubr4 = target: T3, GST-Ubr-box of Ubr4 (UniProt Q5T4S7 1656-1729); experiment: as above
T3 construct: domain: Ubr-box; not shown: glutathione S-transferase (GST) tag

GST-Ubr-box of Ubr5 = target: T4, GST-Ubr-box of Ubr5 (UniProt O95071 1177-1245); experiment: as above
T4 construct: domain: Ubr-box; not shown: glutathione S-transferase (GST) tag
T4 sequence (looked up): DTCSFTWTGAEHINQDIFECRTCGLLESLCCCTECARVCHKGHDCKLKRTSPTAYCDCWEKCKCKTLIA

[3] = target: T5, Purified GST (glutathione S-transferase) (UniProt P08515 1-218 = GST); experiment: fluorescence polarization, GST titrated into 9 nM tracer
T5 construct: Control protein in the FP assay; also called GST alone
Excerpt: The FP assay uses a tetrapeptide with a sequence arginine-isoleucine-phenylalanine-serine (RIFS) with fluorescein attached to the C-terminus as tracer that was previously shown to bind to the Ubr-boxes of Ubr1 and Ubr2 with similar binding affinity. Assays were developed in 384-well plates, which were read on a Clariostar Reader. Signal-to-background ratio (S/B) was optimized by varying concentrations of GST-Ubr-box and tracer concentrations. GST-fusion proteins were used due to its larger size than Ubr-box alone to increase the FP effect. […] The optimized condition includes receptor concentration [GST-UBR1]=2 μM, tracer concentration [tracer]=9 nM, and the highest concentration of unlabeled peptidomimetic compound competitors at 200 μM with 3× serial dilutions.

T3 sequence (Q5T4S7 1656-1729): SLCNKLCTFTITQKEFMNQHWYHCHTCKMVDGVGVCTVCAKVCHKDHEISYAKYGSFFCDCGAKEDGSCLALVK
T1 sequence (chain, as listed by the source limits assumed): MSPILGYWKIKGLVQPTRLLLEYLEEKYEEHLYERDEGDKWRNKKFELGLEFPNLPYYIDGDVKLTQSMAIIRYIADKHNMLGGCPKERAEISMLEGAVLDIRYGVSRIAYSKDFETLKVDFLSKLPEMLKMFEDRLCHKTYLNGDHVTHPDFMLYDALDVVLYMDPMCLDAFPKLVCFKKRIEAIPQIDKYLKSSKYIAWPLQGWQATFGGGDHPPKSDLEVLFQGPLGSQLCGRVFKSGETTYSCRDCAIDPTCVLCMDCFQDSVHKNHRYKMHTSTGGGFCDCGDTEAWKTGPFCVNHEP
T2 sequence (chain, as listed by the source limits assumed): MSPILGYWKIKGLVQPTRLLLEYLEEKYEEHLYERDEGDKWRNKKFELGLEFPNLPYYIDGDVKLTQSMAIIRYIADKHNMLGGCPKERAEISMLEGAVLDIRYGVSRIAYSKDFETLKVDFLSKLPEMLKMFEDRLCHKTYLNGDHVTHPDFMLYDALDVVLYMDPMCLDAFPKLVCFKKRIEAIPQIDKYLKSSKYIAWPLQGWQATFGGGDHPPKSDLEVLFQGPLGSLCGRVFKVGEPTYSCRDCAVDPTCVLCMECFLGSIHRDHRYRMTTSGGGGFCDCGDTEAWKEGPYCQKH
T5 sequence (P08515 whole entry): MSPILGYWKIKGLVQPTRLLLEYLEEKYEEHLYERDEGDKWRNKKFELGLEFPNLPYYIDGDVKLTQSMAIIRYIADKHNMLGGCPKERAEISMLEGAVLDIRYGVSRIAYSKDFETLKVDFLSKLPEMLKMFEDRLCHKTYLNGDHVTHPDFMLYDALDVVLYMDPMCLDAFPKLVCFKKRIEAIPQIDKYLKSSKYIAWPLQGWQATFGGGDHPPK

B1: tetrapeptide arginine-isoleucine-phenylalanine-serine (RIFS) with fluorescein attached to the C-terminus (peptide)
peptide: RIFS-fluorescein
notes: FP tracer, used at 9 nM; also called tracer
[1]
  binding result: binds
[2]
  binding result: binds
GST-Ubr-box of Ubr4
  binding result: no binding
GST-Ubr-box of Ubr5
  binding result: no binding
[3]
  binding result: no binding
